These results are taken from publication PMC8567388 (iScience, 2021).

Ends that are not written are not given here.

As usually defined, the Kd is the equilibrium constant for the complex coming apart.

The target in experiment [1] is T1, PSD-95 61-724 6xHis (human, UniProt P78352 61-724). Briefly: fluorescence polarisation.
Experiment [2] deals with T2, PSD-95 61-724 6xHis pSer142 (human, UniProt P78352 61-724, phosphoserine at 142). In words: fluorescence polarisation. For orientation: Fluorescence polarisation rises when a labelled molecule tumbles more slowly, as on binding a larger partner.
In experiment [3] the target is T3, PSD-95 61-724 6xHis pSer73 (human, UniProt P78352 61-724, phosphoserine at 73). In words: fluorescence polarisation.
The target in experiment [4] is T1, PSD-95 61-724 6xHis. Briefly: co-sedimentation.
For experiment [5], the target named is T3, PSD-95 61-724 6xHis pSer73. In words: co-sedimentation.
The target in experiment [6] is T2, PSD-95 61-724 6xHis pSer142. Briefly: co-sedimentation.

As for {TAMRA}-NNGPAGKHMVTEV [Peptide ligand: Kv1.7 (TAMRA-NNG-PAGKHMVTEV)], the binding result in experiment [1] and in experiment [2] was “binds” throughout.
For the molecule {TAMRA}-NNGKKMPSIESDV [Peptide ligand: GluN2A (TAMRA-NNG-KKMPSIESDV)], the binding result in experiment [1] and in experiment [3] was “binds” each time.
On to {TAMRA}-NNGNTANRRTTPV [Peptide ligand: Stargazin (TAMRA-NNG-NTANRRTTPV)], for which, in experiment [1], binding was characterised by a dissociation constant (Kd) of 2700 nM.

B1: GluN2B cytoplasmic tail (aa 1170-1482) (domain or fragment)
chain: GGPCTNRSHLKHGTGEKHGVVGGVPAPWEKNLTNVDWEDRSGGNFCRSCPSKLHNYSSTVAGQNSGRQACIRCEACKKAGNLYDISEDNSLQELDQPAAPVAVTSNASSTKYPQSPTNSKAQKKNRNKLRRQHSYDTFVDLQKEEAALAPRSVSLKDKGRFMDGSPYAHMFEMPAGESSFANKSSVPTAGHHHNNPGSGYMLSKSLYPDRVTQNPFIPTFGDDQCLLHGSKSYFFRQPTVAGASKTRPDFRALVTNKPVVVTLHGAVPGRFQKDICIGNQSNPCVPNNKNPRAFNGSSNGHVYEKLSSIESDV
Turning to B1, the binding result in experiment [4], in experiment [5] and in experiment [6] was “binds” throughout.
Consider {TAMRA}-NNGSNAKAVETDV [Peptide ligand: Kv1.4 (TAMRA-NNG-SNAKAVETDV)], for which the binding result in experiment [1] and in experiment [2] was “binds” each time.
Consider {TAMRA}-NNGYEKLSSIESDV [Peptide ligand: GluN2B (TAMRA-NNG-YEKLSSIESDV)], for which, in experiment [1], the Kd came out at 1200 nM.
